In this series the test system is Saccharomyces cerevisiae. The series can be described thus: transcriptional activation domain activity (GFP:mCherry ratio, weighted mean of sorted bins, harmonized to initial dataset scale) (arbitrary fluorescence ratio units); higher = stronger transcriptional activation. Particulars: beta-estradiol 1 µM; induction time 4 h. In outline:
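Barcoded protein tiles fused to an estradiol-inducible synthetic transcription factor were integrated at the yeast URA3 locus, in diploids carrying a GFP reporter. Cultures were diluted 1:5 into SC with 1 uM beta-estradiol, held 4 hours at 30 °C, sorted into 8 bins by GFP:mCherry ratio, and barcodes sequenced. Tiles under 50 reads were discarded. Activation activity is the read-weighted mean of bin median fluorescence, averaged across barcodes, then linearly mapped onto the initial dataset scale.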

Consider “LLECREDYINNNIRYCDDNKILLKSMIQMFVDLIPFSDKFLGLIFHIVPSFMH”, for which the “transcriptional activation domain activity” value stood at 44700.

Turning to “LLEELTQRLLQTDETPDSKVKDLSRFINMIILRFFATARRMAVFRALFNLLLH”, the “transcriptional activation domain activity” value was found to be 50300.

As for “LLEMGLRWTLDAFGDSARMAGHIFHCLSNLEMTLPSYMYIQLLRSILKLPKTV”, the “transcriptional activation domain activity” value was 31000.

Take “LLESLGHDDSLEFFFVSGMLRYVRFGFWRRIIGYQFRNLRTQITRSIYYDWYR”: the “transcriptional activation domain activity” value stood at 45500.

For the sequence “LLFFFFFFLLLFFLLFLLLRSRPPSSFSPASIVWPLRAGFGIPLPLFLLFFLP”, the “transcriptional activation domain activity” value worked out at 20800.

For “LLFFFFLFLSFSSLLHVWGLCLPISSFVGLWSLYLLFSPIPIVLPRVKLLFLA”, the “transcriptional activation domain activity” value was found to be 60200.

In the case of “LLFFFSFFFVCFKYFPPFFFSSFLSFSFYCLSILTYPIHYPPPVFGISGSFFV”, the “transcriptional activation domain activity” value was 51800.

Turning to “LLFFSLSLFKKKYLPFILFFFFFYSSLFFFFYPFLFNFFSFFLIFFFFFSLQV”, the “transcriptional activation domain activity” value was determined as 34300.

Regarding “LLFLLAHWHALAKLRMHTDSTLTLLDCATKSLGAALRDFQTKVCPAFNTHELR”, the “transcriptional activation domain activity” value was determined as 51400.

As for “LLFLPYSCASFFFSLFSLFYFFLFYFFLLFSHIRIFISLSIHFSSSCFSTFLL”, the “transcriptional activation domain activity” value is 58300.

Take “LLFQSGVLRGYGGLLGFWIYLLLSSSFLLHLFYCCYIVLYLFVFVSWLLACLL”: the “transcriptional activation domain activity” value was found to be 51700.

On to “LLFTFCLYPSFLPFLLLSPLFFFLSLSPFSFFSLFSLSLPLLSPSLFSTPFIH”, for which the “transcriptional activation domain activity” value worked out at 39600.

Turning to “LLFTLLWLLFFFFFFLFLLFFFVVLVFVFFVVYFFILLLLFIVVDDEWVLLGL”, the “transcriptional activation domain activity” value was determined as 45300.

As to “LLFVTDWALVGLGRFSESCIFFFLFSLWYNFCLHRFFISPTLYSSLTWHCVTS”, the “transcriptional activation domain activity” value came out at 42800.

On to “LLGLYMKMRFRTQEDFWRQIAILLRDLFVPDLQAETVVFFMRLLYNSNSMYKH”, for which the “transcriptional activation domain activity” value is 24100.

With “LLGMFAQLAFADYVMTPSQARLALFVFERLLKLLRAAPYPCVRVAILQLLMWL”, the “transcriptional activation domain activity” value came to 45500.

For “LLGVGYAMVLAWFMCLFYLFPFLGALTLYFVMDVVDLASRTLYKLLHTLPILV”, the “transcriptional activation domain activity” value was 52500.

Take “LLGVLTLLLLYCNVVLITYHVPTWSRPLDIAFIHAPVRLFFILPLSLLFPYSL”: the “transcriptional activation domain activity” value stood at 56100.

In the case of “LLHAAGVHYGYGLLLLKCDILLRLLMFISFLLSSQFLLSVISPLLFFPSFVLM”, the “transcriptional activation domain activity” value worked out at 54700.

“LLHILCFLMNLILTTLTLFVLLRDHLQLSCNVYTGLFFSCHTVSVAFSGVILL”: the “transcriptional activation domain activity” value turned out to be 66200.

For the sequence “LLHLAISQLQAYLDRFRTRLNAVHALHLKRLILFLTALDQFTCARVAGMKVRS”, the “transcriptional activation domain activity” value amounted to 33700.

In the case of “LLHPDKREPIDEDIWTVIPRGIRCEMMTFDLHIWLRRLVECLYKCLLENLVPT”, the “transcriptional activation domain activity” value was determined as 46600.

For “LLICSVVALVTCLAFLTNLTSMVPNFVLACLPLTAFLIFGTHSDLLRVWCFWW”, the “transcriptional activation domain activity” value was determined as 28700.

“LLIFVLFYYNCMKILYGIFGFIILGVLGLFGYYISSMLLWLYNVPFDYISFFF”: the “transcriptional activation domain activity” value worked out at 68500.

On to “LLIFYFLFSCICIHFQQHLGLPLYLFNQDWYYAWQALAKQYFGLLLITMTKWW”, for which the “transcriptional activation domain activity” value turned out to be 53400.

With “LLILLLAFKKTSKEDPYEAIRLMSLAIGDQYAQGPDRFRLSCQWAVLARMISH”, the “transcriptional activation domain activity” value was found to be 38400.

Consider “LLILSLTVPFLHGLLRPHTHYVHLLVVVFLTFSPFFVILTISYEGLFYVIFCI”, for which the “transcriptional activation domain activity” value amounted to 57900.

For the sequence “LLIPTISFFFCATNCYVLTKDSQLDRGYIYWVLRCSAVHLMLSFFTLLFSLCF”, the “transcriptional activation domain activity” value turned out to be 48100.

With “LLIQPLIQGFCYLMQFWISFFSSLFCFVTGDIPILLGILIPFYCLFFFHFFLF”, the “transcriptional activation domain activity” value is 58700.

With “LLISDSQLGSYLLIGFVLENFICLFGLLVHSYLSLTRMDLGSFFFFAQITNRM”, the “transcriptional activation domain activity” value turned out to be 40700.

Consider “LLIYGIVGFINLIKGEYLIVITGCKKIGSLVHNAEIYRATSFQILPVTHGLSS”, for which the “transcriptional activation domain activity” value is 55300.

Turning to “LLKAVQEDEGDDGVIVAYLDTLVPLLEDYLTSGPLGQFTLRLRLLLSFQVYAS”, the “transcriptional activation domain activity” value was found to be 53800.

For “LLKGLTLRNPAILKLEEDEDEAALLTQYAVKCSEVDKFLLTYVILKLKLIKGK”, the “transcriptional activation domain activity” value came to 33200.

“LLKKCLKSSFGKSNEVTTYCLEFFGNVYRWSEMYWSSTWPVLLLVHALKSKQK”: the “transcriptional activation domain activity” value stood at 52700.

“LLKLKMATKTNDIALYEHFIDMSLRFLPFWNMIVSYYLCLLLLFNTTHIIFIL”: the “transcriptional activation domain activity” value came to 90500.

For “LLKNNILKWMCLVFRFVTRRVRFTYLTLPLATRCVGQGLVYIIRIIQDGHSYI”, the “transcriptional activation domain activity” value came to 43100.

Turning to “LLKPNSCHFLLRNDIVFYKWTYYVAVIINVALRFAWTLNLANLSLNPQLLIFI”, the “transcriptional activation domain activity” value was determined as 56100.

“LLKYAEWLIKPEQNNGSWVADVLWPVLNLDLQWISSHWNESSWDLWWPPIWGG”: the “transcriptional activation domain activity” value turned out to be 32400.

Regarding “LLLALLIADCGHLVSMRGLGVQVYWNIWEWNVFTAASVLLVYFYITLRICFLF”, the “transcriptional activation domain activity” value amounted to 53300.

Turning to “LLLCGEICVACIVLYIHIVFFFGFFFFFLLGMIGLCLTFSNQLILFVYFLYFL”, the “transcriptional activation domain activity” value came to 43200.

Turning to “LLLESEPLFRCTLPTIRDNISAYLSFLQIPNGNATEELPQWMPYILLIFEILL”, the “transcriptional activation domain activity” value was found to be 54400.

Take “LLLFIHSLIHGTMLLFWRWPMLSILQVPMHPFLLLVCFNLFSQSVPPVLVSAA”: the “transcriptional activation domain activity” value was 59500.

As to “LLLFLFLRICFGLHVLATSAWFFYPSFLYGLSLITLPLFYGGVDPSVPWLFDG”, the “transcriptional activation domain activity” value came out at 48900.

“LLLFNDEYTHIWSTPSFALKWIYLFARYFPLLFQSTSYYLLTHILSRPPISWS”: the “transcriptional activation domain activity” value was 61800.

As for “LLLHVLIALRFWRFFGYSIGMVCGILLELVGYCGKVQLSHNRDNKDGYIIGLT”, the “transcriptional activation domain activity” value was found to be 50800.

As to “LLLHYKHEEFVGHEETDFVVMGFTKLLLCCISSLKSFKKPLNAGPLIERIFRK”, the “transcriptional activation domain activity” value was 84700.

Consider “LLLLIFAVFLRACDILSSQWLIWWTDGIVLGASHDLNFWKGWYMFIVWISLFF”, for which the “transcriptional activation domain activity” value worked out at 54800.

As to “LLLLIWMVTRLVRTYTTIMFRCLGPPDHVAKMHRLLLGLSTCLQLSVYVLITS”, the “transcriptional activation domain activity” value turned out to be 47300.

Regarding “LLLLLDRFIDRNHLLDHIKIGTSDLLNLPGQRSIYISRLCRAICILGYNVNND”, the “transcriptional activation domain activity” value was determined as 30400.

“LLLLLLYFFLFLFLFLFLCSQVLCLGQVDLVDLEKPFVFQSFFEIFPTLLFLP”: the “transcriptional activation domain activity” value was 35100.

Take “LLLLLVYSNVALLVYHAPTYTRPFDMALIHAPLRFFMILPLSLLFPYSLFITL”: the “transcriptional activation domain activity” value came to 57700.

In the case of “LLLLPVSFLVLSGIYSPFILILFDSPWPVLYVLIYFPLCYFVLSPYIIFALSP”, the “transcriptional activation domain activity” value was 51200.

On to “LLLLYGLTWAFNLIACMLTSTNNGNMVSCILTNFNCIIVYTITKIILYLYFVE”, for which the “transcriptional activation domain activity” value is 43200.

Turning to “LLLPELFFFHLYWALIAFRFIPLLTLLRGMGYCLFFSLLFFFLFFSLFSVLFT”, the “transcriptional activation domain activity” value worked out at 53000.

For “LLLPFVVRRFGCWVCGFYLVLLFFIFPLLLYVVLSSCFSILFTSPFIFYFSSF”, the “transcriptional activation domain activity” value came to 61200.

Take “LLLPLLLPVLHIFPFLIDFLLPVLDLLLALLVLLPALLDLLLVLLVLLPPLLP”: the “transcriptional activation domain activity” value worked out at 56100.

For “LLLRGSTFSFLLSSFLHFFIALVNCMLYTPPKFFKNPFCMFILFYLSYLLWGT”, the “transcriptional activation domain activity” value was 66000.

In the case of “LLLRSFKTFQLWTGDQCLEYLGDKFRVVLGLPDDWTNKDLGYWLLSKLVLVHL”, the “transcriptional activation domain activity” value worked out at 73000.

Take “LLLVHGRWSYQRVADMHSNFFYKNVIWTFALFWYLPFNSFDATYLYQYTFILL”: the “transcriptional activation domain activity” value was 47600.

On to “LLLYLLQLVQALKYEHISTEANRDATQKSSLARFLIARAVDSFMLGNYFYWYL”, for which the “transcriptional activation domain activity” value came out at 59400.

With “LLMGLYLSEICMIGLFVLRDAFGPMVLMVMFFVLSILVHLSLADAFSPLLYNL”, the “transcriptional activation domain activity” value worked out at 52200.

Consider “LLMYTLFYMISEIFYSVAYDAHYFMFDPISVALVQCPMFACVVISVLYGHIWS”, for which the “transcriptional activation domain activity” value was 57800.

With “LLNIGNGGVPKNTNVHLGAQFFYLSFLEFILSCLTLCSRSWAWFHVVCVVHLR”, the “transcriptional activation domain activity” value worked out at 62300.

With “LLNNELFQGPSLSDEVTDWFGASEDIGLEFVEPWTELIEQRYMQCGDGDNNNF”, the “transcriptional activation domain activity” value came to 151000.

In the case of “LLNVHVCVIYFVGWIVSLFQFCQIAIQQPTLDWVHCLPYILRVLLGFDLVYVT”, the “transcriptional activation domain activity” value was 66100.

“LLPGPPFPFPPLLLFFLVVFLSCSFFELSFMFLFFVYFFFISLFFCIFFFDNH”: the “transcriptional activation domain activity” value was determined as 34700.

“LLPKSFPYSFFILFFFFLNFLLSSCFFLLFFPSPIRLSPSFTLVVIFHYFLRF”: the “transcriptional activation domain activity” value was determined as 51500.

Regarding “LLPLFFASIGFAIVSMILIFSSNVVCLLICPHQALSRIVASYLLRHDPKYLCA”, the “transcriptional activation domain activity” value was 71600.

Turning to “LLQKVAIQHYHTGLRALIPWSQLTVLVIASIPSQQCVRVLALAVNLLYCEFAI”, the “transcriptional activation domain activity” value amounted to 67000.

Turning to “LLQLWYMHKSLVLADPTLVCPLAFCFYNLSSIINGLVYFDQFAFLSTLHLLLV”, the “transcriptional activation domain activity” value is 25400.

Take “LLQMDKAGFVKDEITDVFALVVCRNLSLFHICAYILNVYRNYIMMVLEALRAQ”: the “transcriptional activation domain activity” value worked out at 64800.

As to “LLQSLKRTTEIPVKDAFLGLLRADACFCIYRMLRCTNVNLPICRLTGLLDVIR”, the “transcriptional activation domain activity” value was determined as 61400.

For “LLQSSKEDIPFINANLAFPDDNSTNIQLQPFSESQSQNKFDYDMFFRDSSKEG”, the “transcriptional activation domain activity” value was 80700.

In the case of “LLRALSDLRRWRRKYTMLLELPDPFKSQRQHAHEYQLAIPLVEEAVLSFFLFL”, the “transcriptional activation domain activity” value is 57600.

The values are drawn from the supplement of paper PMC12636428.
